Where no end group is shown, it is not given here.
Experiments:
[1] = biological target: T1, FAM19A5 epitope fragment F2 conjugated to BSA (human, conjugated to BSA); assay: ELISA on peptide-BSA coated on the plate
T1 peptide: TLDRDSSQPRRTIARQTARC
Description: (§1) Overlapping peptide fragments (F1-F6, See FIG. 1) of the human FAM19A5 protein were synthesized and conjugated to BSA. Binding of the different anti-FAM19A5 antibodies to the BSA-conjugated peptide fragments F1-F6 was determined by ELISA assay. Briefly, FAM19A5 fragment F1-F6 (diluted to 1 μg/mL in 50 mM carbonate buffer (Biosesang) or to 20 μg/mL for high concentration analysis) were used to coat the wells of 96-well immuno plates (Thermo Scientific) (100 μL/well) overnight at 4° C. and then subsequently washed twice in 1×PBS. The plates were then blocked with the blocking buffer (100 μL/well) for 1 hour at room temperature. During the 1-hour incubation, the relevant anti-FAM19A5 antibodies were diluted to 1 μg/mL (or 20 μg/mL for high concentration analysis) in the diluent buffer. Once the plates were washed (2× using 1×PBS), the diluted anti-FAM19A5 antibodies were added to the appropriate wells, and the plates were incubated at room temperature for 1 hour. The plates were subsequently washed for a total of five times using the washing buffer. Next, the ODP substrate (prepared by dissolving one ODP tablet (0-phenylenediamine Dihydrochloride, Thermo) into 9 mL of sterilized deionized water and 1 mL of 10× stable Peroxide Stable buffer (Theromo)) was added to each of the wells, and the color change reaction was allowed to occur for 10 minutes. This reaction was stopped by adding 100 μL of 2N H2SO4 (Daejung) to the wells. The absorption value of each of the wells was detected at 492 nm using a 96-well microplate reader (Molecular Device).

[2] = biological target: T2, FAM19A5 epitope fragment F3 conjugated to BSA (human, conjugated to BSA); assay: ELISA on peptide-BSA coated on the plate
T2 peptide: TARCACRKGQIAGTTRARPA
Description: as §1

[3] = biological target: T3, FAM19A5 epitope fragment F4 conjugated to BSA (human, conjugated to BSA); assay: ELISA on peptide-BSA coated on the plate
T3 peptide: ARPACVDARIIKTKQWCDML
Description: as §1

[4] = biological target: T4, FAM19A5 epitope fragment F6 conjugated to BSA (human, conjugated to BSA); assay: ELISA on peptide-BSA coated on the plate
T4 peptide: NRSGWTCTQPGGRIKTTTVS
Description: as §1

[5] = biological target: T5, FAM19A5 epitope fragment F1 conjugated to BSA (human, also: conjugated to BSA); assay: ELISA on peptide-BSA coated on the plate
T5 peptide: QLAAGTCEIVTLDR
Description: as §1

[6] = biological target: T6, FAM19A5 mutant M1 (human); assay: ELISA with phage-displayed FAM19A5 mutants
T6 construct: Region EP1 is replaced with the FAM19A1-4 consensus; The fusion to the phage protein is not described
T6 chain: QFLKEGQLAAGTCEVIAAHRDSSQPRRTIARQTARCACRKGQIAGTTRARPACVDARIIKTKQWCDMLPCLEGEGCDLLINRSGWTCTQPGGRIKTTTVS

[7] = biological target: T7, FAM19A5 mutant M2 (human); assay: ELISA with phage-displayed FAM19A5 mutants
T7 construct: Expressed on phage; It has substitutions at amino acid residues 21-25 (EP2)
T7 chain: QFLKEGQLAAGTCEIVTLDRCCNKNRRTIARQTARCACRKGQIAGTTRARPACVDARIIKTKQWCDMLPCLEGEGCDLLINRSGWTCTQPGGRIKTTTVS

[8] = biological target: T8, FAM19A5 mutant M3 (human); assay: ELISA with phage-displayed FAM19A5 mutants
T8 construct: Expressed on phage; Region EP3 is replaced with the FAM19A1-4 consensus
T8 chain: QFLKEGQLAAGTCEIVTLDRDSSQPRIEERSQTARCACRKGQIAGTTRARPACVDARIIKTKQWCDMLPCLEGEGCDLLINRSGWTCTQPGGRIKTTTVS

[9] = biological target: T9, FAM19A5 mutant M4 (human); assay: ELISA with phage-displayed FAM19A5 mutants
T9 construct: Expressed on phage; Region EP4 is replaced with the FAM19A1-4 consensus
T9 chain: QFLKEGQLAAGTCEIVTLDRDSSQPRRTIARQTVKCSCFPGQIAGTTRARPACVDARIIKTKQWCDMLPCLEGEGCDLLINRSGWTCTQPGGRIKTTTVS

[10] = biological target: T10, FAM19A5 mutant M6 (human); assay: ELISA with phage-displayed FAM19A5 mutants
T10 construct: Expressed on phage; Region EP6 is replaced with the FAM19A1-4 consensus
T10 chain: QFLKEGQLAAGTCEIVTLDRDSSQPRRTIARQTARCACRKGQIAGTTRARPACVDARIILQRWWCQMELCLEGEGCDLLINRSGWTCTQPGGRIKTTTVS

[11] = biological target: T11, FAM19A5 mutant M7 (human); assay: ELISA with phage-displayed FAM19A5 mutants
T11 construct: Expressed on phage; Region EP7 is replaced with the FAM19A1-4 consensus
T11 chain: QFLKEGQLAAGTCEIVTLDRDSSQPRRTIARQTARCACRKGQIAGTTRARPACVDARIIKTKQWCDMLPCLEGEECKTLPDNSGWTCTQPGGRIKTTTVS

[12] = biological target: T12, FAM19A5 mutant M8 (human); assay: ELISA with phage-displayed FAM19A5 mutants
T12 construct: Expressed on phage; Region EP8 is replaced with the FAM19A1-4 consensus
T12 chain: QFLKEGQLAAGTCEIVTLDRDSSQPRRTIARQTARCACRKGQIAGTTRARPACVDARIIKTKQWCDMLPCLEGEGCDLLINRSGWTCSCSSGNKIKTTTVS

[13] = biological target: T1, FAM19A5 epitope fragment F2 conjugated …; assay: ELISA, antigen coated on the plate, antibody in solution, absorbance at 492 nm
Description: as §1

[14] = biological target: T2, FAM19A5 epitope fragment F3 conjugated …; assay: as above
Description: as §1

[15] = biological target: T3, FAM19A5 epitope fragment F4 conjugated …; assay: as above
Description: as §1

[16] = biological target: T13, FAM19A5 epitope fragment F5 conjugated to BSA (human, conjugated to BSA); assay: as above
T13 peptide: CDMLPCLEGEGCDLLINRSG
Description: as §1

[17] = biological target: T4, FAM19A5 epitope fragment F6 conjugated …; assay: as above
Description: as §1

[18] = biological target: T5, FAM19A5 epitope fragment F1 conjugated …; assay: as above
Description: as §1

[19] = biological target: T13, FAM19A5 epitope fragment F5 conjugated …; assay: ELISA on peptide-BSA coated on the plate
Description: as §1

[20] = biological target: T1, FAM19A5 epitope fragment F2 conjugated …; assay: ELISA on coated BSA-conjugated peptide
Description: as §1, with “Next, the ODP substrate (prepared by dissolving one ODP tablet (0-phenylenediamine Dihydrochloride, Thermo) into 9 mL of sterilized deionized water and 1 mL of 10× stable Peroxide Stable buffer (Theromo)) was added to each of the wells, and the color change reaction was allowed to occur for 10 minutes. This reaction was stopped by adding 100 μL of 2N H2SO4 (Daejung) to the wells.” left out

Binder | binding result [1] | binding result [2] | binding result [3] | binding result [4] | binding result [5] | binding result [6] | binding result [7] | binding result [8] | binding result [9] | binding result [10] | binding result [11] | binding result [12] | O.D. [13] | O.D. [14] | O.D. [15] | O.D. [16] | O.D. [17] | O.D. [18] | binding result [19] | binding result [20]
anti-FAM19A5 antibody 1-65 (antibody, V domains shown) VH: AVTLDESGGGLQTPGGALSLVCKASGFTFSSYQMGWVRQAPGKGLEWVGVINKSGSDTSYGSAVKGRATISRDNGQSTVRLQLNNLRAEDTGTYFCAKGSASYITAATIDAWGHGTEVIVSS VL: ALTQPSSVSANPGETVKITCSGGGSSGYGYGWYQQKSPSSAPLTVIYWNDKRPSDIPSRFSGSKSGSTHTLTITGVQAEDEAVYFCGNDDYSSDSGYVGVFGAGTTLTVL | no binding | no binding | no binding | no binding | no binding | binds | binds | binds | binds | no binding | no binding | no binding | 0.06 | 0.06 | 0.06 | 1.5 | 0.05 | 0.06 | – | –
anti-FAM19A5 antibody 2-13 (antibody, V domains shown, Chicken-derived scFv clone; also called Anti-FAM19A5 ("2-13")) VH: AVTLDESGGGLQTPGGALSLVCKASGFTFSSHGMFWVRQTPGKGLEYVAEITNDGSGTNYGSAVKGRATISRDNGQSTVRLQLNNLRAEDTGTYFCARSTYECPGGFSCWGDTGQIDAWGHGTEVIVSS VL: ALTQPSSVSANPGETVKITCSGGSYSYGWFQQKSPGSALVTVIYWDDERPSDIPSRFSGALSGSTNTLTITGVQADDEAVYFCGTEDISGTAGVFGAGTTLTVL | no binding | no binding | no binding | no binding | no binding | binds | binds | binds | no binding | binds | binds | no binding | 0.06 | 0.06 | 0.05 | 0.05 | 0.06 | 0.06 | no binding | –
anti-FAM19A5 antibody 3-2 (antibody, V domains shown, The text reports one result for both formats, so one molecule is written here; also called h3-2; m3-2) VH: not shown VL: ALTQPSSVSANPGETVKITCSGGGSYAGSYYYGWYQQKAPGSAPVTLIYESNKRPSDIPSRFSGSTSGSTATLTITGVQADDEAIYYCGSWDSSNGGIFGAGTTLTVL | – | – | – | – | – | binds | no binding | binds | binds | binds | binds | binds | 3.3 | – | – | – | – | – | – | –
anti-FAM19A5 antibody 1-28 (antibody, V domains shown, Chicken-derived scFv clone; also called Anti-FAM19A5 ("1-28")) VH: AVTLDESGGGLQTPGGALSLVCKASGFDFSDYGMGWVRQAPGKGLEWVAAIRSDGSNPSYGSAVKGRATISKDNGRSTVRLQLNNLRAEDTATYYCAKDGNGYCALDAYRSGGYSCGVYPGSIDAWGHGTEVIVSS VL: ALTQPSSVSANLEGTVEITCSGSGYGYGWYQQKSPGSAPVTVIYQNDKRPSDIPSRFSGSKSGSTGTLTITGVQVEDEAVYYCGSEDSSTLAGIFGAGTTLTVL | – | – | – | – | – | binds | no binding | binds | binds | binds | binds | binds | – | – | – | – | – | – | – | binds

Source: patent publication US20200299373A1 (NEURACLE SCIENCE, published 2020)
